Experimental data taken from patent US20230338564A1, “NEODEGRADER CONJUGATES” (Orum Therapeutics, Inc., priority 2020, published 2023).

Test system: RD-ES cell line
Assay: In vitro antiproliferation assay, General Procedure 2 (CCK-8)
Type: cell-based
Details: Ewing’s sarcoma
From the text: Cell Culture: Cell lines were obtained from the American Type Culture Collection (ATCC, Manassas, VA, USA) or Deutsche Sammlung von Mikroorganismen und Zellkulturen (DSMZ, Braunschweig, Germany) and maintained according to the culturing conditions specified by ATCC or DSMZ. Cells were thawed out and maintained in culture for at least two passages before proceeding with experimental conditions.
Cytotoxicity assays: For adherent cell lines, the cells were dissociated with enzyme-free PBS-based cell dissociation buffer (Gibco, USA) and plated on tissue culture treated 96-well flat bottom polystyrene plates (Costar, Corning, USA) at appropriate cell densities depending on doubling time of the cells. 18 hours after plating, cells were treated with test articles at appropriate concentrations starting at 100 nM and diluted in 4-fold serial dilutions. For suspension cell lines, the cells were seeded on the same day of treatment and cells were treated as described above. Adherent cells were treated for 5 days and suspension cells were treated for 3 days. Cell proliferation was assessed using the Cell Counting Kit-8 (CCK-8, Dojindo Laboratories, Japan) and measurements were obtained using the Promega GloMax Discover plate reader (Promega, USA). Data were analyzed using GraphPad Prism software (GraphPad Software, San Diego, CA). All data points were obtained from technical triplicates and the experiments were validated using three biological replicates.

B1: Ontuxizumab-Compound (Ia) (conjugate, chains of the INN, looked up)
VH: QVQLQESGPGLVRPSQTLSLTCTASGYTFTDYVIHWVKQPPGRGLEWIGYINPYDDDTTYNQKFKGRVTMLVDTSSNTAYLRLSSVTAEDTAVYYCARRGNSYDGYFDYSMDYWGSGTPVTVSS
VL: DIQMTQSPSSLSASVGDRVTITCRASQNVGTAVAWLQQTPGKAPKLLIYSASNRYTGVPSRFSGSGSGTDYTFTISSLQPEDIATYYCQQYTNYPMYTFGQGTKVQIK
modifications: conjugated to Compound (Ia)
IC50: 27.3 pM
